This note sets out measurements from the supplement of paper PMC5998384.

Series [1] has as its system HeLa Kyoto. Briefly: solubility in G1/S (NP-40 vs SDS abundance) (log2 ratio); higher = more soluble. The settings on record: cell cycle stage: G1/S.
The subject of series [2] is HeLa Kyoto. The experiment in a line: melting temperature (median over replicates), in situ; higher = more thermally stable.
The subject of series [3] is HeLa Kyoto. Briefly: solubility change mitosis vs G1/S (difference of NP-40 vs SDS log2 ratios) (log2 ratio difference); higher = more soluble in mitosis.
The subject of series [4] is HeLa Kyoto. The experiment in a line: thermal stability score vs G1/S (z-score of summed log2 fold changes over temperatures); higher = more thermally stable than in G1/S.
[5] abbreviates: cell cycle stage: early G1 (4.5 h after nocodazole release).
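Wherever melting temperature (median over replicates), in situ is given: HeLa Kyoto cells synchronized by double thymidine or nocodazole block, proteins quantified by TMT10plex mass spectrometry, three independent biological replicates.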
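Wherever solubility change mitosis vs G1/S (difference of NP-40 vs SDS log2 ratios) is given: synchronized HeLa Kyoto cells (double thymidine block for G1/S, nocodazole release for mitosis), protein amounts in NP-40 versus SDS lysates quantified by mass spectrometry, three biological replicates.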
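Wherever solubility in G1/S (NP-40 vs SDS abundance) is given: HeLa Kyoto cells arrested at G1/S by double thymidine block, proteins quantified by TMT10plex mass spectrometry in mild NP-40 versus SDS extracts, three biological replicates.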
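Wherever thermal stability score vs G1/S (z-score of summed log2 fold changes over temperatures) is given: synchronized HeLa Kyoto cells, proteins quantified by TMT10plex mass spectrometry, three biological replicates, mitosis taken 0.5 h after nocodazole release, G1/S directly after double thymidine block.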

In the case of “MAAETLLSSLLGLLLLGLLLPASLTGGVGSLNLEELSEMRYGIEILPLPVMGGQSQSSDVVIVSSKYKQRYECRLPAGAIHFQREREEETPAYQGPGIPELLSPMRDAPCLLKTKDWWTYEFCYGRHIQQYHMEDSEIKGEVLYLGYYQSAFDWDDETAKASKQHRLKRYHSQTYGNGSKCDLNGRPREAEVRFLCDEGAGISGDYIDRVDEPLSCSYVLTIRTPRLCPHPLLRPPPSAAPQAILCHPSLQPEEYMAYVQRQADSKQYGDKIIEELQDLGPQVWSETKSGVAPQKMAGASPTKDDSKDSDFWKMLNEPEDQAPGGEEVPAEEQDPSPEAADSASGAPNDFQNNVQVKVIRSPADLIRFIEELKGGTKKGKPNIGQEQPVDDAAEVPQREPEKERGDPERQREMEEEEDEDEDEDEDEDERQLLGEFEKELEGILLPSDRDRLRSEVKAGMERELENIIQETEKELDPDGLKKESERDRAMLALTSTLNKLIKRLEEKQSPELVKKHKKKRVVPKKPPPSPQPTEEDPEHRVRVRVTKLRLGGPNQDLTVLEMKRENPQLKQIEGLVKELLEREGLTAAGKIEIKIVRPWAEGTEEGARWLTDEDTRNLKEIFFNILVPGAEEAQKERQRQKELESNYRRVWGSPGGEGTGDLDEFDF [OS9]”, the “solubility in G1/S (log2)” value in series [1] was 0.241. The melting temperature stood at 54.4 °C in series [2] (cell cycle stage: G1/S) and 53.8 °C in series [2] (cell cycle stage: mitosis). The “solubility change mitosis (log2)” value in series [3] is -0.128. Further, the thermal stability score is 0.21 in series [4] (setting [5]) and -0.468 in series [4] (cell cycle stage: mitosis).
For the sequence “MAAETQTLNFGPEWLRALSSGGSITSPPLSPALPKYKLADYRYGREEMLALFLKDNKIPSDLLDKEFLPILQEEPLPPLALVPFTEEEQRNFSMSVNSAAVLRLTGRGGGGTVVGAPRGRSSSRGRGRGRGECGFYQRSFDEVEGVFGRGGGREMHRSQSWEERGDRRFEKPGRKDVGRPNFEEGGPTSVGRKHEFIRSESENWRIFREEQNGEDEDGGWRLAGSRRDGERWRPHSPDGPRSAGWREHMERRRRFEFDFRDRDDERGYRRVRSGSGSIDDDRDSLPEWCLEDAEEEMGTFDSSGAFLSLKKVQKEPIPEEQEMDFRPVDEGEECSDSEGSHNEEAKEPDKTNKKEGEKTDRVGVEASEETPQTSSSSARPGTPSDHQSQEASQFERKDEPKTEQTEKAEEETRMENSLPAKVPSRGDEMVADVQQPLSQIPSDTASPLLILPPPVPNPSPTLRPVETPVVGAPGMGSVSTEPDDEEGLKHLEQQAEKMVAYLQDSALDDERLASKLQEHRAKGVSIPLMHEAMQKWYYKDPQGEIQGPFNNQEMAEWFQAGYFTMSLLVKRACDESFQPLGDIMKMWGRVPFSPGPAPPPHMGELDQERLTRQQELTALYQMQHLQYQQFLIQQQYAQVLAQQQKAALSSQQQQQLALLLQQFQTLKMRISDQNIIPSVTRSVSVPDTGSIWELQPTASQPTVWEGGSVWDLPLDTTTPGPALEQLQQLEKAKAAKLEQERREAEMRAKREEEERKRQEELRRQQEEILRRQQEEERKRREEEELARRKQEEALRRQREQEIALRRQREEEERQQQEEALRRLEERRREEEERRKQEELLRKQEEEAAKWAREEEEAQRRLEENRLRMEEEAARLRHEEEERKRKELEVQRQKELMRQRQQQQEALRRLQQQQQQQQLAQMKLPSSSTWGQQSNTTACQSQATLSLAEIQKLEEERERQLREEQRRQQRELMKALQQQQQQQQQKLSGWGNVSKPSGTTKSLLEIQQEEARQMQKQQQQQQQHQQPNRARNNTHSNLHTSIGNSVWGSINTGPPNQWASDLVSSIWSNADTKNSNMGFWDDAVKEVGPRNSTNKNKNNASLSKSVGVSNRQNKKVEEEEKLLKLFQGVNKAQDGFTQWCEQMLHALNTANNLDVPTFVSFLKEVESPYEVHDYIRAYLGDTSEAKEFAKQFLERRAKQKANQQRQQQQLPQQQQQQPPQQPPQQPQQQDSVWGMNHSTLHSVFQTNQSNNQQSNFEAVQSGKKKKKQKMVRADPSLLGFSVNASSERLNMGEIETLDDY [GIGYF2]”, the “solubility in G1/S (log2)” value in series [1] is -0.0985. Moreover, the results for the melting temperature in series [2] (cell cycle stage: G1/S) and in series [2] (cell cycle stage: mitosis) were 49.4 °C and 49.8 °C, respectively. Also, in series [3], the “solubility change mitosis (log2)” value was -0.00842. The values for the thermal stability score in series [4] (setting [5]) and in series [4] (cell cycle stage: mitosis) were 0.406 and 0.959, respectively.
Consider “MAAFSKYLTARNSSLAGAAFLLLCLLHKRRRALGLHGKKSGKPPLQNNEKEGKKERAVVDKVFFSRLIQILKIMVPRTFCKETGYLVLIAVMLVSRTYCDVWMIQNGTLIESGIIGRSRKDFKRYLLNFIAAMPLISLVNNFLKYGLNELKLCFRVRLTKYLYEEYLQAFTYYKMGNLDNRIANPDQLLTQDVEKFCNSVVDLYSNLSKPFLDIVLYIFKLTSAIGAQGPASMMAYLVVSGLFLTRLRRPIGKMTITEQKYEGEYRYVNSRLITNSEEIAFYNGNKREKQTVHSVFRKLVEHLHNFILFRFSMGFIDSIIAKYLATVVGYLVVSRPFLDLSHPRHLKSTHSELLEDYYQSGRMLLRMSQALGRIVLAGREMTRLAGFTARITELMQVLKDLNHGKYERTMVSQQEKGIEGVQVIPLIPGAGEIIIADNIIKFDHVPLATPNGDVLIRDLNFEVRSGANVLICGPNGCGKSSLFRVLGELWPLFGGRLTKPERGKLFYVPQRPYMTLGTLRDQVIYPDGREDQKRKGISDLVLKEYLDNVQLGHILEREGGWDSVQDWMDVLSGGEKQRMAMARLFYHKPQFAILDECTSAVSVDVEGYIYSHCRKVGITLFTVSHRKSLWKHHEYYLHMDGRGNYEFKQITEDTVEFGS [ABCD3]”, for which the “solubility in G1/S (log2)” value in series [1] was -0.213. In addition, the results for the melting temperature in series [2] (cell cycle stage: G1/S) and in series [2] (cell cycle stage: mitosis) were 52.5 °C and 52.3 °C, respectively. Also, the “solubility change mitosis (log2)” value in series [3] is -0.103. Moreover, the thermal stability score in series [4] (setting [5]) stood at 1.37; in series [4] (cell cycle stage: mitosis), 0.619.
Regarding “MAAGAAEAAVAAVEEVGSAGQFEELLRLKAKSLLVVHFWAPWAPQCAQMNEVMAELAKELPQVSFVKLEAEGVPEVSEKYEISSVPTFLFFKNSQKIDRLDGAHAPELTKKVQRHASSGSFLPSANEHLKEDLNLRLKKLTHAAPCMLFMKGTPQEPRCGFSKQMVEILHKHNIQFSSFDIFSDEEVRQGLKAYSSWPTYPQLYVSGELIGGLDIIKELEASEELDTICPKAPKLEERLKVLTNKASVMLFMKGNKQEAKCGFSKQILEILNSTGVEYETFDILEDEEVRQGLKAYSNWPTYPQLYVKGELVGGLDIVKELKENGELLPILRGEN [GLRX3]”, in series [1], the “solubility in G1/S (log2)” value came out at 0.354. Further, the melting temperature was 49.6 °C in series [2] (cell cycle stage: G1/S) and 49.9 °C in series [2] (cell cycle stage: mitosis). Further, the “solubility change mitosis (log2)” value in series [3] was -0.111. Further, the thermal stability score was 2.12 in series [4] (setting [5]) and 1.6 in series [4] (cell cycle stage: mitosis).
